Laboratory results from paper PMC3777949, “Dimerization Mediates Thermo-Adaptation, Substrate Affinity and Transglycosylation in a Highly Thermostable Maltogenic Amylase of Geobacillus thermoleovorans” (PLoS ONE, 2013).

Columns and labels:
[1] = molecular target: Gt-Mamy D109A mutant (Geobacillus thermoleovorans)
[2] = molecular target: maltogenic amylase of Geobacillus thermoleovorans (Gt-Mamy), recombinant wild type (Geobacillus thermoleovorans); experiment: SEC; Sephacryl S-200 high resolution column, 100 mM sodium phosphate pH 7 with 50 mM NaCl, 0.3 ml/min; masses from a plot of molecular weight vs Ve/Vo against standards

Row | Ea required for thermal denaturation [1] [kcal/mol] | T1/2 of thermal inactivation at 80, 90 and 100°C [1] [h] | stoichiometry N [2] | Substance
1 | 33.8 | 44.6 | – | Gt-Mamy D109A mutant (enzyme)
2 | – | – | 2 | maltogenic amylase of Geobacillus thermoleovorans (Gt-Mamy), recombinant wild type (enzyme)
